Source: publication PMC6122994 (The Journal of Cell Biology, 2018)

Target: the molecule itself
Assay: SEC

B1: MBP-Opi1 (full-length) (natural protein, S. cerevisiae, UniProt P21957 1-404, looked up)
chain: MSENQRLGLSEEEVEAAEVLGVLKQSCRQKSQPSEDVSQADKMPASESSTTPLNILDRVSNKIISNVVTFYDEINTNKRPLKSIGRLLDDDDDEHDDYDYNDDEFFTNKRQKLSRAIAKGKDNLKEYKLNMSIESKKRLVTCLHLLKLANKQLSDKISCLQDLVEKEQVHPLHKQDGNARTTTGAGEDETSSDEDDDDEEFFDASEQVNASEQSIVVKMEVVGTVKKVYSLISKFTANSLPEPARSQVRESLLNLPTNWFDSVHSTSLPHHASFHYANCEEQKVEQQQQQQQQQQQQQLLQQQLLQQQQQKRNKDGDDSASPSSSVTANGKVLILAKESLEMVRNVMGVVDSTLGKAEEWVKQKQEVKEMIRERFLQQQQQYRQQQQKDGNYVKPSQDNVDSKD
- binding result: binds
